Assay results published in article PMC10926475, “A Detoxification Enzyme for Apis mellifera Newly Characterized by Recombinant Expression: 10-Formyl Tetrahydrofolate Dehydrogenase” (Frontiers in Insect Science, 2022).

Substrate: Nc1nc2c(c(=O)[nH]1)N[C@@H](CN(C=O)c1ccc(C(=O)N[C@@H](CCC(=O)O)C(=O)O)cc1)CN2
Experiment: purified protein
Type: biochemical, Apis mellifera
Conditions: dehydrogenase reaction, 200 μM NADP+, 100 mM β-mercaptoethanol, Tris/HCl pH 7.6 (pH of highest Vmax), 30°C

B1: Amel_10-FTHFDH (10-formyl tetrahydrofolate dehydrogenase of A. mellifera) (Apis mellifera) (protein)
chain: AQLKVAIIGQSNFAAEVYKLLKLNGHQITGVFTIPDKGNREDPLAITAKIDNTPVFKIKSWRSKGVTLPEVLQLYKGIEVDLNVLPFCSQFIPMEVINHPRHRSICYHPSLLPRHRGASAITWTLIEGDDTAGFSIFWADDGLDTGPILLQRSCKVNSNDTLDSLYNNFLYPEGIKAMAEAVNLVAKGTAPMIPQTEEGATYDPMMNKKELQKIDWTKPAKQVHDFIRSLDSTPGAWTIIDGEEVRLFGSILWNDDQIPEHEIEVNVEDRLGIIHKDGLLIKAVDNHFVNVERMKVGTRTILASKFGQKSEDTIIEFTAEEQKMIESLKRTWEGILNMDVNEDTDFFACGAGSMDVIRLVEEVKDNLGVILQNIDVFMSPVFIQFVNKVVLTARGISTSKEIKYDAVEVQTNNMTLKFPRQLFINGEFVNGHGNPIDTINPHDETIICSVETGTVEDVDKAVKAAKKAFEEGEWSKISARERGVLLFKLADLMEEHKEELATIESIDSGAVYTLALKTHIGMSIETWRYFAGWCDKIQGSTIPITHARPNRNLTFTRKEPIGVCGLVTPWNYPLMMLSWKMAACLAAGNTVVMKPAQASPLTALKFAELTAKAGFPPGVVNIVPGNGTETGNAICEHLLIRKLGFTGSTQIGQSIMKSCANSNLKKVSLELGGKSPLVIFEDTDLQQAIKIAMSSVFFNKGENCIAAGRLFVEETIHDEFLQRIVEETKKISIGNPLDRSTAHGPQNHKAHLNKLLKFVERGVKEGAKLIYGGKRLDRPGWYFEPTIFTDVKDDMYIAKEESFGPIMVISKFSSKNIDDMIARANNTEYGLASGILTKDISKALRFAEKIEAGTVFINTYNKTDVAAPFGGFKMSGFGKDLGQEALNEYLKTKTITVEY
notes: complete ORF, N-terminal 6xHis tag kept (…... from primer), baculovirus / Hi5 insect cells, Ni-NTA, about 100 kDa
Question: For B1, which Km is on record?
Answer: 9.596 µM
